# Data as given in article PMC13674618, “Electropolymerized Aptasensor for Femtogram‐Level Cytokine Detection”.
# What was measured:
# [1] = molecular target: Tumour necrosis factor-alpha (TNF-alpha) (Homo sapiens, UniProt P01375 77-233); experiment: OECT gate-voltage shift; negligible, non-monotonic shifts over the tested range; Kelvin probe in agreement; PBS (immobilization and rinse PBS pH 7.4); FO-SPR 10 min per concentration step; aptamer folded 95 C 5 min, ice 15 min, RT 5 min; assay temperature not stated; details: protein: recombinant; chain copies: 3; label: none
# Sequence of Tumour necrosis factor-alpha (TNF-alpha) (P01375 77-233): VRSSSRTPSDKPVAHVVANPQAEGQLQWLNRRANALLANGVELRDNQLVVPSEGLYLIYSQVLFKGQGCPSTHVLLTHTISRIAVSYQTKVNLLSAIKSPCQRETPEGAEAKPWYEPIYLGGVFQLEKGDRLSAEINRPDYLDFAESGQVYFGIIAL
# Interleukin-6 (IL-6) = Interleukin-6 (IL-6) (UniProt P05231 30-212); experiment: FO-SPR; aptamer immobilized on pALT5c film; 100 fg/mL to 1 ug/mL IL-6 in PBS; no response without aptamer; PBS (immobilization and rinse PBS pH 7.4); FO-SPR 10 min per concentration step; aptamer folded 95 C 5 min, ice 15 min, RT 5 min; assay temperature not stated; details: label: none
# Sequence of Interleukin-6 (IL-6) (P05231 30-212): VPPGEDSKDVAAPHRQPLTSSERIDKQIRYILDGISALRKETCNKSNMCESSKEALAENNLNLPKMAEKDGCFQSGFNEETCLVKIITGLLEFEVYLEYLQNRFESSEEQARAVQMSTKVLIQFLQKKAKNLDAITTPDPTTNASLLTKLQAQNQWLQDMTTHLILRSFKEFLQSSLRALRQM
binder,measurement,setting,value
"CTTCCAACGCTCGTATTGTCAGTCTTTAGT (ssDNA, 5'-AminoC6) [IL-6 specific aptamer (Apt)]",binding result,[1],no binding
same,binding result,Interleukin-6 (IL-6),binds
